Biological target: the molecule itself
Experiment: SEC

B1: Bacillus subtilis xanthine phosphoribosyltransferase (XPRT), hexahistidine tag removed (enzyme, UniProt P42085 1-194, looked up)
chain: MEALKRKIEEEGVVLSDQVLKVDSFLNHQIDPLLMQRIGDEFASRFAKDGITKIVTIESSGIAPAVMTGLKLGVPVVFARKHKSLTLTDNLLTASVYSFTKQTESQIAVSGTHLSDQDHVLIIDDFLANGQAAHGLVSIVKQAGASIAGIGIVIEKSFQPGRDELVKLGYRVESLARIQSLEEGKVSFVQEVHS
Question: How did the “stoichiometry N” value turn out when B1 was run?
Answer: The value was 2.
